Laboratory results: article PMC12695660, “Genome-scale CRISPR screens identify PTGES3 as a direct modulator of androgen receptor function in advanced prostate cancer”
Positions count from the first letter of the chain named.

Legend:
[1] = target: ARΔNTD (AR DBD-hinge-LBD) (mouse, UniProt P19091 528-899); assay: fluorescence polarization; 1 uM DHT; no PTGES3; apparent Kd only plotted; FP/EMSA: 150 mM NaCl, 20 mM HEPES pH 7.5, 1 mM TCEP, 1 uM DHT, 10% glycerol, 0.05% IGEPAL CA-630, 100 nM DNA; proteins preincubated 30 min on ice at 8 uM; assay temperature not stated. Mass photometry: same buffer at 5 uM, flash diluted into PBS to 10 nM; details: protein: recombinant; chain copies: 2; label: 5'-fluorescein (6-FAM) on sense strand; blunt
[2] = target: ARΔNTD (AR DBD-hinge-LBD);PTGES3 (tagless) (mouse;human, UniProt P19091;Q15185 528-899;1-160, |); assay: fluorescence polarization; 1 uM DHT; equimolar PTGES3; binding stronger than ARΔNTD alone (P=0.0337); FP/EMSA: 150 mM NaCl, 20 mM HEPES pH 7.5, 1 mM TCEP, 1 uM DHT, 10% glycerol, 0.05% IGEPAL CA-630, 100 nM DNA; proteins preincubated 30 min on ice at 8 uM; assay temperature not stated. Mass photometry: same buffer at 5 uM, flash diluted into PBS to 10 nM; details: protein: recombinant;recombinant; tags: ;Smt3 tag cleaved by Ulp1; label: 5'-fluorescein (6-FAM) on sense strand; blunt
[3] = target: T1, ARΔNTD (AR DBD-hinge-LBD);Smt3-PTGES3 (mouse;human, UniProt P19091;Q15185 528-899;1-160, |); assay: fluorescence polarization; 1 uM DHT; equimolar Smt3-PTGES3; binding stronger than ARΔNTD alone (P=0.0254); FP/EMSA: 150 mM NaCl, 20 mM HEPES pH 7.5, 1 mM TCEP, 1 uM DHT, 10% glycerol, 0.05% IGEPAL CA-630, 100 nM DNA; proteins preincubated 30 min on ice at 8 uM; assay temperature not stated. Mass photometry: same buffer at 5 uM, flash diluted into PBS to 10 nM; details: protein: recombinant;recombinant; tags: ;N-terminal Smt3; label: 5'-fluorescein (6-FAM) on sense strand; blunt
[4] = target: T1, ARΔNTD (AR DBD-hinge-LBD);Smt3-PTGES3; assay: mass photometry; Smt3-PTGES3 restricts formation of heterogeneous complexes; FP/EMSA: 150 mM NaCl, 20 mM HEPES pH 7.5, 1 mM TCEP, 1 uM DHT, 10% glycerol, 0.05% IGEPAL CA-630, 100 nM DNA; proteins preincubated 30 min on ice at 8 uM; assay temperature not stated. Mass photometry: same buffer at 5 uM, flash diluted into PBS to 10 nM; details: protein: recombinant;recombinant; tags: ;N-terminal Smt3; blunt
ARDBD;PTGES3 (tagless) = ARDBD;PTGES3 (tagless) (mouse;human, UniProt P19091;Q15185 528-631;1-160, |); assay: EMSA; equimolar PTGES3 augments ARDBD binding; PTGES3 variant (tagless or Smt3) not stated; FP/EMSA: 150 mM NaCl, 20 mM HEPES pH 7.5, 1 mM TCEP, 1 uM DHT, 10% glycerol, 0.05% IGEPAL CA-630, 100 nM DNA; proteins preincubated 30 min on ice at 8 uM; assay temperature not stated. Mass photometry: same buffer at 5 uM, flash diluted into PBS to 10 nM; details: protein: recombinant;recombinant; tags: ;Smt3 tag cleaved by Ulp1; label: 5'-fluorescein (6-FAM) on sense strand; blunt
ARDBD;PTGES3 (tagless), sequence (P19091 528-631, chain 1 of 2): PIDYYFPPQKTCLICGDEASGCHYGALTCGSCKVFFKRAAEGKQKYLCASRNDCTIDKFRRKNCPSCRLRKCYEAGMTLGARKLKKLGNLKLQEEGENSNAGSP
ARDBD;PTGES3 (tagless), sequence (Q15185 whole entry, chain 2 of 2): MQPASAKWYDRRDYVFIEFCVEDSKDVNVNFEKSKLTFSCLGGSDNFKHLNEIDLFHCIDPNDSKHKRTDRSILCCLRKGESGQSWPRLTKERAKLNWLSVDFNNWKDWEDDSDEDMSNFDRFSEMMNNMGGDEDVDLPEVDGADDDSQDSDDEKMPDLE

T1 sequence (P19091 528-899, stated change not applied, chain 1 of 2): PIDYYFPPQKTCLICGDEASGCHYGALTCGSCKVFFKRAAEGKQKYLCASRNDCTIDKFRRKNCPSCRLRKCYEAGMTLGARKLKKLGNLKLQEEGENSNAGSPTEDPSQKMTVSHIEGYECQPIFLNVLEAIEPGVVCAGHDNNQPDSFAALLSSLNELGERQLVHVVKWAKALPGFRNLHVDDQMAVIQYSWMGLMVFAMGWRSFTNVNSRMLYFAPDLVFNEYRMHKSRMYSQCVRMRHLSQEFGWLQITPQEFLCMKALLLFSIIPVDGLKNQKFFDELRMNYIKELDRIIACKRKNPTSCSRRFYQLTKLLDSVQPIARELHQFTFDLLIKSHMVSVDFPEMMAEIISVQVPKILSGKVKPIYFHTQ
T1 sequence (Q15185 whole entry, stated change not applied, chain 2 of 2, the tested form may be a part): as the sequence (Q15185 whole entry, chain 2 of 2) above
ARΔNTD (AR DBD-hinge-LBD);PTGES3 (tagless), sequence (P19091 528-899, stated change not applied, chain 1 of 2): as the sequence (P19091 528-899, stated change not applied, chain 1 of 2) above
ARΔNTD (AR DBD-hinge-LBD);PTGES3 (tagless), sequence (Q15185 whole entry, stated change not applied, chain 2 of 2, the tested form may be a part): as the sequence (Q15185 whole entry, chain 2 of 2) above
ARΔNTD (AR DBD-hinge-LBD), sequence (P19091 528-899, stated change not applied): as the sequence (P19091 528-899, stated change not applied, chain 1 of 2) above

B1: ARE 36 bp (dsDNA)
DNA 1: TAAAATGTAAACAACGTAGAACATCAGGAACTCCGG
DNA 2: CCGGAGTTCCTGATGTTCTACGTTGTTTACATTTTA
- binding result [1]: binds
- binding result [2]: binds
- binding result [3]: binds

B2: ARE 36 bp, unlabeled (mass photometry) (dsDNA)
DNA 1: B1 DNA 1 with G27T, A29T, A30T
DNA 2: B1 DNA 2 with T7A, T8A, C10A
- binding result [4]: binds

B3: Canonical ARE 36 bp (dsDNA)
DNA 1: B1 DNA 1 with G27T, A29T, A30T
DNA 2: B1 DNA 2 with T7A, T8A, C10A
- binding result (ARDBD;PTGES3 (tagless)): binds
